T1: His6-AGR2, purified recombinant, O95994
T1 chain: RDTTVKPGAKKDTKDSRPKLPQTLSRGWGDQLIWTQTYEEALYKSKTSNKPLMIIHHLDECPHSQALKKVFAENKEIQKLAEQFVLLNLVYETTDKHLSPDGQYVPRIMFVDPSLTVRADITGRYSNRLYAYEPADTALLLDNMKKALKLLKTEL

T2: wild type AGR2, enforced expression, O95994
T2 chain: T1 chain

B1: His6-AGR2, purified recombinant, O95994 21-175 (natural protein)
chain: T1 chain
B2: wild type AGR2, enforced expression, O95994 21-175 (natural protein)
chain: T1 chain

Assays:
[1] = target: T1, His6-AGR2, purified recombinant, O95994; experiment: non-reducing SDS-PAGE and immunoblot of disulfide-bonded complexes; conditions: remark: other sources report otherwise
[2] = target: T2, wild type AGR2, enforced expression, …; experiment: as above; conditions: remark: other sources report otherwise

Row | Binder | stoichiometry N [1] | stoichiometry N [2]
1 | B1 | 2 | 
2 | B2 |  | 2
